How the values were obtained:
VEGF165 [1] = target: T1, VEGF165 (human, UniProt P15692-4 27-191); assay: EMSA supershift; 10 uM VEGF165; ternary complex; EMSA: TBSE (0.05 mM EDTA, 10 mM Tris-HCl, 100 mM NaCl, pH 7; Vap7 folded with +100 mM KCl), 25 C, 30-60 min, 0.1 uM aptamer; 12% gel in 50 mM glycine pH 9.5 with or without 10 mM KCl. Microarray: TBSE, 25 C, 30 min, PBS washes; settings: protein: commercial; chain copies: 2; label: 5'-FAM on strand 2; two separate aptamers, not a duplex
VEGF165 [2] = target: T1, VEGF165; assay: EMSA; 100 mM KCl; EMSA: TBSE (0.05 mM EDTA, 10 mM Tris-HCl, 100 mM NaCl, pH 7; Vap7 folded with +100 mM KCl), 25 C, 30-60 min, 0.1 uM aptamer; 12% gel in 50 mM glycine pH 9.5 with or without 10 mM KCl. Microarray: TBSE, 25 C, 30 min, PBS washes; settings: protein: commercial; chain copies: 2; G4
VEGF165 [3] = target: T1, VEGF165; assay: EMSA; 5 uM VEGF165; EMSA: TBSE (0.05 mM EDTA, 10 mM Tris-HCl, 100 mM NaCl, pH 7; Vap7 folded with +100 mM KCl), 25 C, 30-60 min, 0.1 uM aptamer; 12% gel in 50 mM glycine pH 9.5 with or without 10 mM KCl. Microarray: TBSE, 25 C, 30 min, PBS washes; settings: protein: commercial; chain copies: 2; label: 5'-FAM; three stem-loops (predicted)
VEGF165 [4] = target: T1, VEGF165; assay: EMSA; EMSA: TBSE (0.05 mM EDTA, 10 mM Tris-HCl, 100 mM NaCl, pH 7; Vap7 folded with +100 mM KCl), 25 C, 30-60 min, 0.1 uM aptamer; 12% gel in 50 mM glycine pH 9.5 with or without 10 mM KCl. Microarray: TBSE, 25 C, 30 min, PBS washes; settings: protein: commercial; chain copies: 2; three stem-loops (predicted)
VEGF165 [5] = target: T1, VEGF165; assay: EMSA; 5 uM VEGF165; two shifted bands; EMSA: TBSE (0.05 mM EDTA, 10 mM Tris-HCl, 100 mM NaCl, pH 7; Vap7 folded with +100 mM KCl), 25 C, 30-60 min, 0.1 uM aptamer; 12% gel in 50 mM glycine pH 9.5 with or without 10 mM KCl. Microarray: TBSE, 25 C, 30 min, PBS washes; settings: protein: commercial; chain copies: 2; label: 5'-FAM; G4
VEGF165 [6] = target: T1, VEGF165; assay: sandwich aptamer microarray; detected with VEa5-Cy5; EMSA: TBSE (0.05 mM EDTA, 10 mM Tris-HCl, 100 mM NaCl, pH 7; Vap7 folded with +100 mM KCl), 25 C, 30-60 min, 0.1 uM aptamer; 12% gel in 50 mM glycine pH 9.5 with or without 10 mM KCl. Microarray: TBSE, 25 C, 30 min, PBS washes; settings: protein: commercial; chain copies: 2

T1 sequence (P15692 other isoform, or with tags, fused parts or gaps): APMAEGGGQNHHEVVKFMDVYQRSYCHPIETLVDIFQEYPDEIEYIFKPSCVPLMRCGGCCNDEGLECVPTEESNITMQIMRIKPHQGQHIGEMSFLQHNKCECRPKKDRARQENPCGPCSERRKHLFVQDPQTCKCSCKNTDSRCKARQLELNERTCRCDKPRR

B1: VEa5-NH2 + Vap7-FAM (mixed)
DNA 1: ATACCAGTCTATTCAATTGGGCCCGTCCGTATGGTGGGTGTGCTGGCCAGATAGTATGTGCAATCA
DNA 2: ATACCAGTCTATTCAATTGCACTCTGTGGGGGTGGACGGGCCGGGTAGA
modifications: 5'-amino on strand 1
binding result (VEGF165 [1]): binds

ATACCAGTCTATTCAATTGCACTCTGTGGGGGTGGACGGGCCGGGTAGA (structured_DNA) [Vap7]
binding result (VEGF165 [2]): binds

B2: VEa5-FAM (structured_DNA)
DNA: ATACCAGTCTATTCAATTGGGCCCGTCCGTATGGTGGGTGTGCTGGCCAGATAGTATGTGCAATCA
binding result (VEGF165 [3]): binds

B3: Vap7-NH2 + VEa5-FAM (mixed)
DNA 1: ATACCAGTCTATTCAATTGCACTCTGTGGGGGTGGACGGGCCGGGTAGA
DNA 2: ATACCAGTCTATTCAATTGGGCCCGTCCGTATGGTGGGTGTGCTGGCCAGATAGTATGTGCAATCA
modifications: 5'-amino on strand 1
binding result (VEGF165 [1]): binds

B4: VEa5 (structured_DNA)
DNA: ATACCAGTCTATTCAATTGGGCCCGTCCGTATGGTGGGTGTGCTGGCCAGATAGTATGTGCAATCA
binding result (VEGF165 [4]): binds

ATACCAGTCTATTCAATTGCACTCTGTGGGGGTGGACGGGCCGGGTAGA (structured_DNA) [Vap7-FAM]
binding result (VEGF165 [5]): binds

TCACGCTTATTTAAGAAGCTGTTTGGTGGAGG (ssDNA, 5'-amino) [Random DNA-NH2]
binding result (VEGF165 [6]): no binding

Source: publication PMC3859071, “Development of a Multiplex Sandwich Aptamer Microarray for the Detection of VEGF165 and Thrombin”
